# From US20060216339
# How the values were obtained:
# [1] = biological target: T1, BPDEtide, RKISASEFDRPLR (peptide B, type-I PKG peptide substrate)
# T1 chain: RKISASEFDRPLR
# [2] = biological target: T2, peptide A, RKISASGP (type-I PKG peptide substrate)
# T2 chain: RKISASGP
# [3] = biological target: T3, peptide C, QKRPRRKDTP (type-II PKG substrate)
# T3 chain: QKRPRRKDTP
# [4] = biological target: T4, peptide D, RKRSRAE (H2Btide, type-I PKG peptide substrate)
# T4 chain: RKRSRAE
# [5] = biological target: purified recombinant VASP-GST (vasodilator-stimulated phosphoprotein with C-terminal GST epitope tag), P70460
# Sequence of purified recombinant VASP-GST (vasodilator-stimulated phosphoprotein with C-terminal GST epitope tag), P70460 (P70460 whole entry): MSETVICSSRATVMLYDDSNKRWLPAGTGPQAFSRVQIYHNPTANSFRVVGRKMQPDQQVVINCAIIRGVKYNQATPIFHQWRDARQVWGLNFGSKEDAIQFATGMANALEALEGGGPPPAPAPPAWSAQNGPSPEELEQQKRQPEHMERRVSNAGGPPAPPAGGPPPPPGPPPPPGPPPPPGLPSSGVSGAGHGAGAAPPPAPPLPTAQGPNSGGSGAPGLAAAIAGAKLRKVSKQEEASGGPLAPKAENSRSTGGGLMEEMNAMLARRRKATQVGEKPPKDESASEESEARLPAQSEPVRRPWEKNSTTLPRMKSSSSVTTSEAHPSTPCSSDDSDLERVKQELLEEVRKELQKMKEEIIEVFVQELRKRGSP
# [6] = biological target: recombinant mammalian ERK2 (MAPK p42 protein, bacterial recombinant, already containing phospho-tyrosine-185)
# Sequence of recombinant mammalian ERK2 (MAPK p42 protein, bacterial recombinant, already containing phospho-tyrosine-185) (P28482 2-360): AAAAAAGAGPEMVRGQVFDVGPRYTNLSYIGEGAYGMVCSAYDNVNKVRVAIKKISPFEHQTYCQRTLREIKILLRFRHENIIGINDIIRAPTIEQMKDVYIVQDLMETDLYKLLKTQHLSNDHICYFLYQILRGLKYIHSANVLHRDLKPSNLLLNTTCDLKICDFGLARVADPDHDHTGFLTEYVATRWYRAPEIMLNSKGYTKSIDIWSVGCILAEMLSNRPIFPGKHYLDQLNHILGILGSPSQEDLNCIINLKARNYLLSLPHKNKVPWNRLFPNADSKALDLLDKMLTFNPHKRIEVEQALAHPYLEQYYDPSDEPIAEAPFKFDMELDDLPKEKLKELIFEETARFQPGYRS
Protein,kinase activity on peptide substrates [1],kinase activity on peptide substrates [2],kinase activity on peptide substrates [3],kinase activity on peptide substrates [4],phosphorylation of VASP at serine 239 (Western blot with anti-phospho-VASP (Ser 239)) [5],dual phosphorylation of ERK2 by apPKG in the presence of 1 µg of BPDEtide (Western blot with Ab^pTpYmapk) [1],kinase activity (transfer of ^32P from [^32P]ATP to BPDEtide) [1],ERK2 activity (production of phospho-Elk1) compared with activation by MEK1 [6],activation of ERK2 (phosphorylation of Elk1 by ERK2 after incubation with apPKG) [6],phosphorylation of ERK2 at T183 (Western blot with antibody to ERKpT183) [6],phosphorylation of ERK2 at Y185 (Western blot with antibody to ERKpY185) [6]
recombinant bovine PKG type-Iα (protein) MSELEEDFAKILMLKEERIKELEKRLSEKEEEIQELKRKLHKCQSVLPVPSTHIGPRTTRAQGISAEPQTYRSFHDLRQAFRKFTKSERSKDLIKEAILDNDFMKNLELSQIQEIVDCMYPVEYGKDSCIIKEGDVGSLVYVMEDGKVEVTKEGVKLCTMGPGKVFGELAILYNCTRTATVKTLVNVKLWAIDRQCFQTIMMRTGLIKHTEYMEFLKSVPTFQSLPEEILSKLADVLEETHYENGEYIIRQGARGDTFFIISKGKVNVTREDSPNEDPVFLRTLGKGDWFGEKALQGEDVRTANVIAAEAVTCLVIDRDSFKHLIGGLDDVSNKAYEDAEAKAKYEAEAAFFANLKLSDFNIIDTLGVGGFGRVELVQLKSEESKTFAMKILKKRHIVDTRQQEHIRSEKQIMQGAHSDFIVRLYRTFKDSKYLYMLMEACLGGELWTILRDRGSFEDSTTRFYTACVVEAFAYLHSKGIIYRDLKPENLILDHRGYAKLVDFGFAKKIGFGKKTWTFCGTPEYVAPEIILNKGHDISADYWSLGILMYELLTGSPPFSGPDPMKTYNIILRGIDMIEFPKKIAKNAANLIKKLCRDNPSERLGNLKNGVKDIQKHKWFEGFNWEGLRKGTLTPPIIPSVASPTDTSNFDSFPEDNDEPPPDDNSGWDIDF,both kinases readily phosphorylated several PKG peptide substrates,both kinases readily phosphorylated several PKG peptide substrates,neither kinase phosphorylated peptide C,both kinases readily phosphorylated several PKG peptide substrates,both the bovine and Aplysia kinases phosphorylated this site,,,,,,
"recombinant His-apPKG (Aplysia protein kinase G with N-terminal His tag, expressed in baculovirus/Sf9 cells) (protein) MGNGASSNTHFTIDGESMDVHKVKALVPELRHELRRRDKIIEQYDSQVRQKDELLKEKEAEIARLKEEVHKLKSVLQLKVDTLKAQESKPDLLSTIDENQAEPTAPRGPAKKQGVSGESPSSKTLGYVDLTHHEKDFKSKQLIKDAILSNEFIKVLAATQLREIIDCMYEKRVPKACYIIKGGERGEHLYVCADGLLEVHKEDKRLGEIKSGGLFGELAILYNCKRTASVKAVTHTTLWVLDRRVFQAIMMKTGLQRREENMAFLKSVPLLKNLPSDKLAKMSDVLEYDFFHENEYIIREGAAGDTFFILNKGEVKVTQKIAGHAEPKEVRRLKRGDYFGEKALLSEDRRTANVIALPPGVECLTVDRESFTQFVGDLNELRNKDYGDEARGAERRSGSDSTVSPVSERPVAKEFENCSLDDLQLVTTLGMGGFGRVELVQLSKEKGKTFALKCLKKKHIVETRQQEHIYSEKKIMMEADSPFITKLHKTFRDRKYVYMLMEVCLGGELWTILRDRGNFDDLTARFCVACVLEAFSYLHAKGIIYRDLKPENLLLDARGYVKLVDFGFAKKIGVGKKTWTFCGTPEYVAPEIILNKGHDHSADYWSLGILMYELLNGTPPFSGSDPMRTYNIILKGIDHIEFPKKISRSAHVLIKKLCRDNPMERLGYGKNGISDIRKNKWFQGFDWDGLMDLTLTPPIVPKVKNPTDTSNFDSYPRDMDIAADELSGWDIDF",both kinases readily phosphorylated several PKG peptide substrates,both kinases readily phosphorylated several PKG peptide substrates,neither kinase phosphorylated peptide C,both kinases readily phosphorylated several PKG peptide substrates,both the bovine and Aplysia kinases phosphorylated this site,"The activation was specific, because it was reduced in the presence of BPDEtide",Inactive apPKG was activated by 100 nM 8-Br-cGMP and readily phosphorylated BPDEtide,apPKG produced an ERK2 with similar activity as that produced by MEK1,apPKG activated ERK2 to phosphorylate Elk1,there was an increase in the phosphorylation of the -T- in the presence of apPKG,There was no increase in phosphorylation of the -Y- when ERK2 was incubated with apPKG
